What was measured:
[1] = biological target: ADAM17 at the plasma membrane of A431 cells (human, UniProt P78536 215-824); assay: cell-based or functional assay
[2] = biological target: T1, Peptide_009; assay: peptide microarray: immobilized 15-mer peptides, Cy5 anti-human IgG; signal as ratio to control antibody ch9G4
T1 construct: immobilized on the microarray
T1 peptide: LESCACNETDNSCKV
Method: (§1) Peptide micro array epitope characterization was performed by JPT Peptide Technologies GmbH, Berlin, Germany. In brief the analysis was performed as follows: 32-linear 15-meric peptide sequences representing an overlapping peptide scan (15/12) through the ADAM17 membrane proximal domain were synthesized (Table 5) and immobilized on microarray slides four additional peptides were included by JPT as internal process control spots. Moreover, human IgG and mouse IgG were co-immobilized on the microarray to serve as assay controls. Furthermore, rhADAM17 protein was co-immobilized as an additional control.
(§2) The assay was performed using a Multiwell incubation chamber. Microarrays were incubated with 100 μg/ml 1022C3 or control antibody ch9G4 diluted in blocking buffer (Pierce International, Superblock TBS T20, order No 37536) overnight at 4° C. Microarrays were then incubated with 1 μg/ml Cy5 labelled secondary antibody (anti-human IgG, JIR, 109-175-098) diluted in blocking buffer for 60 min at 30° C. Microarrays were dried. Before each step microarrays were washed with washing buffer (50 mM TBS-buffer, 0.1% Tween20 (v/v), pH 7.2).
(§3) Microarrays were scanned using a high resolution fluorescence scanner. Laser settings and applied resolution were identical for all performed measurements. The resulting images were analyzed and quantified using spot-recognition software GenePix (Molecular Devices). For each spot, the mean signal intensity was extracted (between 0 and 65535 arbitrary units). The ration of signal intensity between 1022C3 and the control antibody ch9G4 was compared between multiple experiments and peptides with a signal three fold higher 1022C3 than ch9G4 were identified (FIG. 3).

[3] = biological target: T2, Peptide_026; assay: as above
T2 construct: immobilized on the microarray
T2 peptide: GKCEKRVQDVIERFW
Method: as §1, §2, §3

[4] = biological target: T3, Peptide_027; assay: as above
T3 construct: immobilized on the microarray
T3 peptide: EKRVQDVIERFWDFI
Method: as §1, §2, §3

[5] = biological target: T4, Peptide_019; assay: as above
T4 construct: immobilized on the microarray
T4 peptide: EQKNLFLRKGKPCTV
Method: as §1, §2, §3

[6] = biological target: T5, Peptide_021; assay: as above
T5 construct: immobilized on the microarray
T5 peptide: LRKGKPCTVGFCDMN
Method: as §1, §2, §3

[7] = biological target: T6, Peptide_018; assay: as above
T6 construct: immobilized on the microarray
T6 peptide: VDAEQKNLFLRKGKP
Method: as §1, §2, §3

[8] = biological target: T7, Peptide_025; assay: as above
T7 construct: immobilized on the microarray
T7 peptide: DMNGKCEKRVQDVIE
Method: as §1, §2, §3

[9] = biological target: T8, Peptide_011; assay: as above
T8 construct: immobilized on the microarray
T8 peptide: NETDNSCKVCCRDLS
Method: as §1, §2, §3

[10] = biological target: T9, Peptide_030; assay: as above
T9 construct: immobilized on the microarray
T9 peptide: RFWDFIDQLSINTFG
Method: as §1, §2, §3

[11] = biological target: T10, Peptide_029; assay: as above
T10 construct: immobilized on the microarray
T10 peptide: VIERFWDFIDQLSIN
Method: as §1, §2, §3

[12] = biological target: T11, Peptide_001; assay: as above
T11 construct: immobilized on the microarray
T11 peptide: DTVCLDLGKCKDGKC
Method: as §1, §2, §3

[13] = biological target: T12, Peptide_004; assay: as above
T12 construct: immobilized on the microarray
T12 peptide: CKDGKCIPFCEREQQ
Method: as §1, §2, §3

[14] = biological target: T13, Peptide_024; assay: as above
T13 construct: immobilized on the microarray
T13 peptide: GFCDMNGKCEKRVQD
Method: as §1, §2, §3

[15] = biological target: T14, Peptide_005; assay: as above
T14 construct: immobilized on the microarray
T14 peptide: GKCIPFCEREQQLES
Method: as §1, §2, §3

[16] = biological target: T15, Peptide_008; assay: as above
T15 construct: immobilized on the microarray
T15 peptide: EQQLESCACNETDNS
Method: as §1, §2, §3

[17] = biological target: T16, Peptide_023; assay: as above
T16 construct: immobilized on the microarray
T16 peptide: CTVGFCDMNGKCEKR
Method: as §1, §2, §3

[18] = biological target: T17, Peptide_014; assay: as above
T17 construct: immobilized on the microarray
T17 peptide: CCRDLSGRCVPYVDA
Method: as §1, §2, §3

[19] = biological target: T18, Peptide_007; assay: as above
T18 construct: immobilized on the microarray
T18 peptide: CEREQQLESCACNET
Method: as §1, §2, §3

[20] = biological target: T19, Peptide_032; assay: as above
T19 construct: immobilized on the microarray
T19 peptide: IDQLSINTFGKFLAD
Method: as §1, §2, §3

[21] = biological target: T20, Peptide_031; assay: as above
T20 construct: immobilized on the microarray
T20 peptide: DFIDQLSINTFGKFL
Method: as §1, §2, §3

[22] = biological target: T21, Peptide_016; assay: as above
T21 construct: immobilized on the microarray
T21 peptide: GRCVPYVDAEQKNLF
Method: as §1, §2, §3

[23] = biological target: T22, Peptide_010; assay: as above
T22 construct: immobilized on the microarray
T22 peptide: CACNETDNSCKVCCR
Method: as §1, §2, §3

[24] = biological target: T23, Peptide_015; assay: as above
T23 construct: immobilized on the microarray
T23 peptide: DLSGRCVPYVDAEQK
Method: as §1, §2, §3

[25] = biological target: T24, Peptide_022; assay: as above
T24 construct: immobilized on the microarray
T24 peptide: GKPCTVGFCDMNGKC
Method: as §1, §2, §3

[26] = biological target: T25, Peptide_012; assay: as above
T25 construct: immobilized on the microarray
T25 peptide: DNSCKVCCRDLSGRC
Method: as §1, §2, §3

[27] = biological target: T26, Peptide_006; assay: as above
T26 construct: immobilized on the microarray
T26 peptide: IPFCEREQQLESCAC
Method: as §1, §2, §3

[28] = biological target: T27, Peptide_028; assay: as above
T27 construct: immobilized on the microarray
T27 peptide: VQDVIERFWDFIDQL
Method: as §1, §2, §3

ADAM17 at the plasma membrane of A431 cells, sequence (P78536 215-824 limits assumed): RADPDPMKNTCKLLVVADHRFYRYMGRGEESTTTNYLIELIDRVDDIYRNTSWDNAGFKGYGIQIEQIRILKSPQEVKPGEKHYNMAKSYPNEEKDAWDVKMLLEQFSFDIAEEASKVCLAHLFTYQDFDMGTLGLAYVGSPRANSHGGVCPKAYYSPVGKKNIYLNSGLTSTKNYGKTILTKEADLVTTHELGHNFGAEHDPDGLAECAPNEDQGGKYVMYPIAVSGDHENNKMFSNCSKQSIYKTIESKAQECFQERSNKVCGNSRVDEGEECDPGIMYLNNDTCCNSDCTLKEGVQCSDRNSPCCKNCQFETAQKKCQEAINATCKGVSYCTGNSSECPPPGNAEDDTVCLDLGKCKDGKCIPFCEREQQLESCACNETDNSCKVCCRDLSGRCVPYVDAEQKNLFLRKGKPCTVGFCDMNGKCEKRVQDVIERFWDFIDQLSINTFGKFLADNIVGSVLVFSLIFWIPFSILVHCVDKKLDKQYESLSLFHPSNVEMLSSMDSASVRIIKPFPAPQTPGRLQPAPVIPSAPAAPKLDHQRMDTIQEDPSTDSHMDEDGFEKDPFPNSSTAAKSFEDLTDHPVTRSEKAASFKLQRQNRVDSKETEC

B1: hz1022C3 (antibody, V domains shown)
VH: QVQLQESGPGLVKPSETLSLTCTVSGFSLDTSGMGVSWIRQPAGKGLEWIGHIYWDDDKRYNPSLKSRVTMSKDTSSNQVSLKLSSVTAADTAVYYCARRSHFGNYYYAMDYWGQGTTVTVSS
VL: DIQMTQSPSSLSASVGDRVTITCRASQDISSYLNWYQQKPGKAPKLLIFYTSRLQSGVPSRFSGSGSGTDFTLTISSLQPEDFATYYCQQGKTLPLTFGGGTKVEIK
notes: also called mAb hz1022C3; anti-ADAM17 mAb (hz1022C3)
no binding (tested: 100 µg/ml): binding result [2] | binding result [3] | binding result [4] | binding result [5] | binding result [6] | binding result [7] | binding result [8] | binding result [9] | binding result [10] | binding result [11] | binding result [12] | binding result [13] | binding result [14] | binding result [15] | binding result [16] | binding result [17] | binding result [18] | binding result [19] | binding result [20] | binding result [21] | binding result [22] | binding result [23] | binding result [24] | binding result [25] | binding result [26] | binding result [27] | binding result [28]
0.19 nM: IC50 of inhibition of cellular shedding of HB-EGF-Nluc from A431 cells [1]
0.16 nM: IC50 of inhibition of cellular shedding of (mutated pro-)TNFα-Nluc [1] | IC50 of inhibition of cellular shedding of AREG-Nluc from A431 cells [1] | IC50 of inhibition of cellular shedding, mean of the four substrates [1]
0.12 nM: IC50 of inhibition of cellular shedding of TGFα-Nluc from A431 cells [1]

From patent US20180057601A1 (PIERRE FABRE MEDICAMENT, published 2018)
